Results reported in patent US20060251644A1 (TANOX, published 2006).

Target: T1, recombinant human IgE, SE44 (human, UniProt P01854-1 1-428)
T1 construct: also called monoclonal human IgE (SE44); biotinylated SE44
Test: ELISA titration on plate-coated SE44 (human IgE); Fab detected with biotin-sheep anti-human Fd and Neutra-avidin-AP (Example 6)
Description: Coating solution was removed and the plates were blocked with 200 uL/well 3% BSA/PBS for 1 hour at 37° C.
The plates were washed 4× with PBS/0.1% TWEEN® (PBST). 50 uL/well Fab (from 15 mL periplasmic prep) was added starting with a dilution of 1:2 and diluting 3 fold serially in 0.5% BSA/PBS and 0.05% TWEEN®20. Plates were incubated for 2 hours at room temperature.

T1 sequence (P01854 other isoform, or with tags, fused parts or gaps): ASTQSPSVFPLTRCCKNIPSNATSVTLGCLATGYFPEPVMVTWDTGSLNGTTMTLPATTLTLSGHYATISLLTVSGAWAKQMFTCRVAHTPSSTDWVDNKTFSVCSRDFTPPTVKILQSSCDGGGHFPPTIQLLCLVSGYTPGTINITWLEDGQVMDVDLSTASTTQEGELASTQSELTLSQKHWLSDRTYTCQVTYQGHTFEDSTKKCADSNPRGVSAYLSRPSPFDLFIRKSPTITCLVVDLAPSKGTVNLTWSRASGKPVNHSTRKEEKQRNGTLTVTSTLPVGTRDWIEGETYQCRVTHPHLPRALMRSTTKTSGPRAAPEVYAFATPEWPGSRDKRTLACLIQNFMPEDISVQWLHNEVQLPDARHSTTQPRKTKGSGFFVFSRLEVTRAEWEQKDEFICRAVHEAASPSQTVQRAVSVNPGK

B1: humanized Fab clone 136 (Fab, V domains shown)
VH: QVQLVQSGAEVMKPGSSVKVSCKASGYTFSMYWLEWVRQAPGHGLEWMGEISPGTFTTNYNEKFKARVTFTADTSTSTAYMELSSLRSEDTAVYYCARFSHFSGSNYDYFDYWGQGTLVTVSS
VL: EIVMTQSPATLSVSPGERATLSCRASQSIGTNIHWYQQKPGQAPRLLIYYASESISGIPARFSGSGSGTEFTLTISSLQSEDFAVYYCQQSDSWPTTFGGGTKVEIK
notes: Retains 5 murine heavy chain framework residues; 100% human light chain framework; also called Clone ID #136; Humanized clone 136
EC50 (read off the curve): ~0.03 µg/mL
